Results on two substances are retold here after PMC13364712.

For the assay, the target named is actin filaments (actin from Gallus gallus skeletal muscle) (Gallus gallus (chicken)) (UniProt P68139). As to the kind of experiment: co-sedimentation; 4 µM EGFP–SFM peptide with 0–200 µM actin filaments in F buffer, 1 h at room temperature, 100,000g for 30 min; pellet read by anti-EGFP western blot; one-site specific binding fit; apparent. A general note: In western blotting, separated proteins are transferred to a membrane and probed.

“EGFP-tagged USP54 SFM peptide, wild type”: the Kd came to 6 µM.

For EGFP–Lifeact (peptide), the Kd came out at 2 µM.
